From the RNAGym collection of RNA variant scans (doi:10.1021/acssynbio.7b00057)

B1: Pistol ribozyme (parent)
chain: GGGUCGUUGUUCCAUAAUCGCGUGGAUAUGGCACGCAAGUUUCUACCGGGCACCGUAAAUGUCCGACUGGAGCCGUUCGGGCGGCUAUAAACAGACCUCAGGCCCGAAGCGUGGCGGCACCUGCCGCCGGUGGUAAAAAAGAUCGGAAGAGCACACGUCU

Variants of: B1
Assay: aptazyme ON/OFF ratio, guanine; higher = stronger switching; co-transcriptional cleavage with and without guanine

Point of comparison: U7A U8C G9U U10G U11C C12G C13G, “aptazyme ON/OFF ratio” value 1.17. Against it:
- U7A U8C G9U U10C C12U — lower, 1.08
- U7A U8C G9U U10C C12G — higher, 1.57
- U7A U8C G9C U10G U11C C12G — higher, 1.21
- U7A U8C G9C U10G U11C C12U — lower, 1.09
- U7A U8C G9C U10G U11C C12A — lower, 1.1
- U7A U8C G9U U10G U11C C12G C13U — higher, 1.21
- U7A U8C G9U U10G U11C C12G C13A — higher, 1.22
- U7A U8C G9U U10A C12G C13U — higher, 1.32
- U7A U8C G9U U10A C12G C13G — higher, 1.22
- U7A U8C G9U U10A C12G C13A — lower, 1.11
- U7A U8C G9C U10G U11G C12A C13G — lower, 1.07
- U7A U8C G9C U10G U11G C12A C13A — lower, 1.15
- U7A U8C G9C U10G U11G C12A C13U — lower, 1.08
- U7A U8C G9C U10G U11A C12G C13G — the same, 1.17
- U7A U8C G9C U10G U11A C12G C13A — lower, 1.02
- U7A U8C G9C U10G U11A C12G C13U — lower, 1.08
- U7A U8C G9U U10A U11G C12U C13A — the same, 1.17
- U7A U8C G9U U10A U11G C12U C13G — higher, 1.21
- U7A U8C G9U U10A U11G C12U C13U — higher, 1.21
- U7A U8C G9C U10G U11C C12U C13G — lower, 1.16
- U7A U8C G9C U10G U11C C12U C13A — lower, 1.12
- U7A U8C G9C U10G U11C C12U C13U — lower, 1.11
- U7A U8C G9U U10C U11G C12G — lower, 1.06
- U7A U8C G9U U10C U11G C12A — lower, 1.04
- U7A U8C G9U U10C U11G C12U — the same, 1.17
- U7A U8C G9U U10C U11G C12U C13A — lower, 1.15
- U7A U8C G9U U10C U11G C12U C13U — higher, 1.18
- U7A U8C G9U U10C U11G C12U C13G — higher, 1.18
- U7A U8C G9U U10C C12A C13A — lower, 1.14
- U7A U8C G9U U10C C12A C13G — higher, 1.29
- U7A U8C G9U U10C C12A C13U — higher, 1.26
- U7A U8C G9C U10C U11G C12U C13G — lower, 1.11
- U7A U8C G9C U10C U11G C12U C13U — lower, 1.09
- U7A U8C G9C U10C U11G C12U C13A — lower, 1.09
- U7A U8C G9C U10G U11G — lower, 1.06
- U7A U8C G9C U10G U11A — lower, 1.04
- U7A U8C G9C U10G U11C — lower, 1.1
- U7A U8C G9U U10A U11C C13A — lower, 1.08
- U7A U8C G9U U10A U11C C13U — lower, 1.06
- U7A U8C G9U U10A U11C C13G — lower, 1.1
- U7A U8C G9C U10G C12U C13G — lower, 1.11
- U7A U8C G9C U10G C12U C13A — lower, 1.06
- U7A U8C G9C U10G C12U C13U — higher, 1.26
- U7A U8C G9U U10C U11C C13A — lower, 1.01
- U7A U8C G9U U10C U11C C13U — lower, 1.03
- U7A U8C G9U U10C U11C C13G — lower, 1.02
- U7A U8C G9U U10C U11A C12G C13U — lower, 1.11
- U7A U8C G9U U10C U11A C12G C13A — lower, 1.11
- U7A U8C G9U U10C U11A C12G C13G — higher, 1.22
- U7A U8C G9U U10C C12G C13G — higher, 1.33
- U7A U8C G9U U10C C12G C13U — higher, 1.51
- U7A U8C G9U U10C C12G C13A — lower, 1.13
- U7A U8C G9U U10G U11G C12A C13G — lower, 1.11
- U7A U8C G9U U10G U11G C12A C13U — higher, 1.37
- U7A U8C G9U U10G U11G C12A C13A — lower, 1.12
- U7A U8C G9C U10C U11G C12U — lower, 1.06
- U7A U8C G9U U10A C13G — lower, 1.08
- U7A U8C G9U U10A C13A — higher, 1.18
- U7A U8C G9U U10A C13U — lower, 1.15
- U7A U8C G9U U10A U11G C13U — higher, 1.23
- U7A U8C G9U U10A U11G C13G — lower, 1.1
- U7A U8C G9U U10A U11G C13A — the same, 1.17
- U7A U8C G9U U10G U11A C12G C13A — higher, 1.22
- U7A U8C G9U U10G U11A C12G C13U — higher, 1.21
- U7A U8C G9U U10G U11A C12G C13G — lower, 0.993
- U7A U8C G9C U10G U11G C12G C13U — lower, 1.05
- U7A U8C G9C U10G U11G C12G C13A — lower, 1.08
- U7A U8C G9C U10G U11G C12G C13G — lower, 1.13
- U7A U8C G9U U10G U11G — lower, 1.11
- U7A U8C G9U U10G U11C — lower, 1.03
- U7A U8C G9U U10G U11A — lower, 1.06
- U7A U8C G9C U10C U11G C12G C13G — lower, 1.08
- U7A U8C G9C U10C U11G C12G C13U — lower, 1.08
- U7A U8C G9U U10A U11A C13G — lower, 1.08
- U7A U8C G9U U10A U11A C13A — the same, 1.17
- U7A U8C G9U U10A U11A C13U — lower, 1.16
- U7A U8C G9U U10G U11C C12U C13G — higher, 1.19
- U7A U8C G9U U10G U11C C12U C13U — lower, 1.09
- U7A U8C G9U U10G U11C C12U C13A — higher, 1.2
- U7A U8C G9U U10A U11G C12G C13G — higher, 1.26
- U7A U8C G9U U10A U11G C12G C13U — higher, 1.18
- U7A U8C G9U U10A U11G C12G C13A — higher, 1.2
- U7A U8C G9U U10C U11G C12G C13U — lower, 1.06
- U7A U8C G9U U10C U11G C12G C13G — lower, 1.11
- U7A U8C G9U U10C U11G C12G C13A — the same, 1.17
- U7A U8C G9C U10C U11G C13G — lower, 1.16
- U7A U8C G9C U10C U11G C13U — lower, 1.04
- U7A U8C G9C U10C U11G C13A — lower, 1.07
- U7A U8C G9U U10C U11G C12A C13G — lower, 1.11
- U7A U8C G9U U10C U11G C12A C13A — lower, 1.13
- U7A U8C G9U U10C U11G C12A C13U — higher, 1.27
- U7A U8C G9U U10G U11A C12U C13U — higher, 1.2
- U7A U8C G9U U10G U11A C12U C13A — lower, 1.06
- U7A U8C G9U U10G U11A C12U C13G — lower, 1.09
- U7A U8C G9C U10G C12G C13U — lower, 1.13
- U7A U8C G9C U10G C12G C13G — lower, 1.11
- U7A U8C G9C U10G C12G C13A — lower, 1.05
- U7A U8C G9C U11G C12U C13G — higher, 1.19
- U7A U8C G9C U11G C12U C13A — the same, 1.17
- U7A U8C G9C U11G C12U C13U — higher, 1.27
- U7A U8C G9U U10G C12G C13A — higher, 1.19
- U7A U8C G9U U10G C12G C13G — lower, 1.14
- U7A U8C G9U U10G C12G C13U — higher, 1.28
- U7A U8C G9C U11A — lower, 1.11
- U7A U8C G9C U11C — lower, 1
- U7A U8C G9C U11G — lower, 1.09
- U7A U8C G9U U10C U11C C12G C13A — lower, 1.04
- U7A U8C G9U U10C U11C C12G C13G — higher, 1.22
- U7A U8C G9U U10C U11C C12G C13U — lower, 1.04
- U7A U8C G9U U10A U11C C12A — higher, 1.2
- U7A U8C G9U U10A U11C C12U — lower, 1.04
- U7A U8C G9U U10A U11C C12G — higher, 1.27
- U7A U8C G9C U11G C13G — lower, 1.13
- U7A U8C G9C U11G C13A — lower, 1.05
- U7A U8C G9C U11G C13U — lower, 1.1
- U7A U8C G9C U10G U11A C12A C13A — lower, 1.03
- U7A U8C G9C U10G U11A C12A C13U — lower, 1.06
- U7A U8C G9C U10G U11A C12A C13G — lower, 1.16
- U7A U8C G9U U10G U11G C12U C13A — lower, 1.07
- U7A U8C G9U U10G U11G C12U C13U — lower, 1.16
- U7A U8C G9U U10G U11G C12U C13G — lower, 1.11
- U7A U8C G9U U10G U11C C12A C13A — lower, 1.14
- U7A U8C G9U U10G U11C C12A C13G — lower, 1.15
- U7A U8C G9U U10G U11C C12A C13U — higher, 1.26
- U7A U8C G9C U10G U11A C12U C13A — lower, 1.07
- U7A U8C G9C U10G U11A C12U C13U — lower, 1.03
- U7A U8C G9C U10G U11A C12U C13G — lower, 1.01
- U7A U8C G9U U10C U11A C12U C13G — lower, 1.09
- U7A U8C G9U U10C U11A C12U C13A — lower, 1.13
- U7A U8C G9U U10C U11A C12U C13U — lower, 1.15
- U7A U8C G9U U10A U11A C12A — higher, 1.28
- U7A U8C G9U U10A U11A C12G — higher, 1.27
- U7A U8C G9U U10A U11A C12U — lower, 1.12
- U7A U8C G9U U10C U11A C12A C13U — lower, 1.12
- U7A U8C G9U U10C U11A C12A C13G — lower, 1.1
- U7A U8C G9U U10C U11A C12A C13A — lower, 1.12
- U7A U8C G9U U10A C12U C13A — higher, 1.29
- U7A U8C G9U U10A C12U C13G — the same, 1.17
- U7A U8C G9U U10A C12U C13U — higher, 1.42
- U7A U8C G9C U11A C12A C13U — lower, 1.05
- U7A U8C G9C U11A C12A C13A — lower, 1.07
- U7A U8C G9C U11A C12A C13G — lower, 1.08
- U7A U8C G9C U11C C13U — lower, 1.03
- U7A U8C G9C U11C C13G — lower, 1.04
- U7A U8C G9C U11C C13A — lower, 1.05
- U7A U8C G9U U10A U11C C12G C13G — lower, 1.08
- U7A U8C G9U U10A U11C C12G C13U — higher, 1.18
- U7A U8C G9U U10A U11C C12G C13A — higher, 1.23
- U7A U8C G9U U10C U11C C12A C13G — higher, 1.18
- U7A U8C G9U U10C U11C C12A C13A — lower, 1.09
- U7A U8C G9U U10C U11C C12A C13U — lower, 1.06
- U7A U8C G9C U11C C12U C13A — lower, 1.04
- U7A U8C G9C U11C C12U C13U — lower, 1.06
- U7A U8C G9C U11C C12U C13G — lower, 1.09
- U7A U8C G9U U10G U11A C13A — lower, 1.04
- U7A U8C G9U U10G U11A C13G — lower, 1.08
- U7A U8C G9U U10G U11A C13U — lower, 1.06
- U7A U8C G9U U10A U11A C12A C13U — higher, 1.22
- U7A U8C G9U U10A U11A C12A C13A — the same, 1.17
- U7A U8C G9U U10A U11A C12A C13G — higher, 1.22
- U7A U8C G9U U10C U11A C13A — lower, 1.1
- U7A U8C G9U U10C U11A C13G — lower, 1.09
- U7A U8C G9U U10C U11A C13U — lower, 1.12
- U7A U8C G9C U10G U11C C12A C13G — lower, 1.08
- U7A U8C G9C U10G U11C C12A C13A — lower, 1.05
- U7A U8C G9C U10G U11C C12A C13U — lower, 1.09
